Data as given in patent US20030186334A1, “KTS-disintegrins” (Temple University - Of the Commonwealth System of Higher …, priority 2001, published 2003).

Experiments:
α2β1 integrin [1] = molecular target: T1, α2β1 integrin (Homo sapiens, UniProt P05556+P17301); test: adhesion of α2K562 cells to collagen I; assay type: cell-based; parameters: expressed in transfected cells; host or cells: α2K562 cells
Procedure: (§1) Adhesive ligands for the selected integrins consisted of collagen IV (0.2 μg/well), collagen I, fibronectin, or vascular cell adhesion molecule-1 (VCAM-1). Adhesive ligands in 0.02 M acetic acid were immobilized overnight at 4° C. on a 96-well plate. Plates were then blocked with 1% (w/v) BSA (bovine serum albumin) in Hank's Balanced Salt Solution (HBSS) containing 3 mM Mg^2+ at room temperature for 1-2 hours to prevent cells from non-specifically binding to the plates. α1K562, α2K562, K562, A5, and Jurkat cells expressing the α1β1, α2β1, α5β1, αIIbβ3, and α4β1 integrins respectively were labeled by incubation with 12.5 μM 5-chloromethylfluorescein diacetate (CMFDA) in HBSS for 15 minutes at 37° C. CMFDA labeled cells were then pelleted, washed and resuspended in HBSS buffer containing 3 mM Mg^2+ and 1% (w/v) BSA. […] Plates were then incubated at 37° C. for 30 minutes as indicated in Table 5 and washed three times with HBSS containing 3 mM Mg^2+ and 1% (w/v) BSA to remove unbound cells. Bound cells were lysed using 0.5% (v/v) Triton X-100 in H2O. Fluorescent CMFDA released by lysis of adherent cells in a given well was read using a Cytofluor 2350 fluorescence plate reader.
(§2) The effect of obtustatin, viperisrastatin, echistatin, and eristostatin on the binding of selected integrins to their adhesive ligands was evaluated using the cell adhesion assay described in Example 6. The integrin-expressing cells, integrins and corresponding adhesive ligands, and the results of the cell adhesion assay are shown in Table 6.

αvβ3 integrin = molecular target: T2, αvβ3 integrin (Homo sapiens, UniProt P05106+P06756); test: adhesion of JY cells to vitronectin; assay type: cell-based; conditions: αvβ3, VN
T2 construct: endogenous in cells; host or cells: JY cells

α5β1 integrin = molecular target: T3, α5β1 integrin (Homo sapiens, UniProt P05556+P08648); test: adhesion of K562 cells to fibronectin; assay type: cell-based
T3 construct: endogenous in cells; host or cells: K562 cells
Procedure: as §1, §2

α1β1 integrin [2] = molecular target: T4, α1β1 integrin (Mus musculus, UniProt P09055+Q3V3R4); test: adhesion of B16F10 cells to collagen IV; assay type: cell-based; conditions: α1β1, Coll IV
T4 construct: endogenous in cells; host or cells: B16F10 cells

angiogenesis = test: Japanese quail chorioallantoic membrane (CAM) angiogenesis assay; assay type: in vivo; conditions: 20 μg and 50 μg, no angiogenesis stimulators
Procedure: The disintegrins obtustatin and eristostatin were evaluated for their effect on angiogenesis via a Japanese quail chorioallantoic membrane (CAM) assay, as is known in the art (see, for example, Parsons-Wingerter P et al., “A Novel Assay of Angiogenesis in the Quail Chorioallantoic Membrane: Stimulation by bFGF and Inhibition by Angiostatin According to Fractal Dimension and Grid Intersection.” Microvascular Research 55(3):201-214, 1998, the disclosure of which is herein incorporated by reference).

αIIbβ3 integrin = molecular target: T5, αIIbβ3 integrin (Homo sapiens, UniProt P05106+P08514); test: adhesion of A5 cells to fibrinogen; assay type: cell-based
T5 construct: expressed in transfected cells; host or cells: A5 cells
Procedure: as §1, §2

[3] = system: human microvascular endothelial cells (HMVECs); test: BrdU incorporation growth assay in HMVECs; assay type: cell-based; conditions: 2 μM
Procedure: Human microvascular endothelial cells (HMVECs) and melanoma cells (HS.939T) were cultured and treated with vehicle (control), 2 μM obtustatin, 2 μM echistatin or 50 ng/ml TNF-α. Growth of the cells was determined by a standard BrdU incorporation assay (Chemicon), according to the manufacturer's instructions.

α2β1 integrin [4] = molecular target: T1, α2β1 integrin; test: adhesion of AJH10 blocked MV3 cells to immobilized collagen IV; assay type: cell-based; parameters: endogenous in cells; host or cells: MV3 human melanoma cells; conditions: adhesion via α2β1
Procedure: The α1β1 integrin specific inhibitory effect of obtustatin was confirmed using human melanoma MV3 cells. MV3 cells express both the α1β1 and α2β1 integrins. MV3 cells adhere strongly to collagen IV through α1β1 and α2β1 integrin-mediated interactions.
Collagen IV (0.2 μg/well) in 0.02 M acetic acid was immobilized overnight at 4° C. on a 96-well plate. Plates were then blocked with 1% (w/v) BSA (bovine serum albumin) in Hank's Balanced Salt Solution (HBSS) containing 3 mM Mg^2+ at room temperature for 1-2 hours to prevent cells from non-specifically binding to the plates. α1K562 cells were labeled by incubation with 12.5 μM 5-chloromethylfluorescein diacetete (CMFDA) in HBSS for 15 minutes at 37° C. CMFDA labeled MV3 cells were then pelleted, washed and resuspended in HBSS buffer containing 3mM Mg^2+ and 1% (w/v) BSA. 1×10^5 cells were then added to each well in the presence (10 μg/ml) or absence of the α1 integrin subunit specific AJH10 mAb and α2 integrin subunit specific P1E6 mAb as indicated in FIG. 5. Obtustatin was added at the concentrations indicated in FIG. 5 simultaneously with the mAbs. The plates were then incubated at 37° C. for 30 minutes and washed three times with HBSS containing 3 mM Mg^2+ and 1% (w/v) BSA to remove unbound cells. […] Fluorescent CMFDA released by lysis of adherent cells in a given well was read using a Cytofluor 2350 fluorescence plate reader.

α1β1 integrin [5] = molecular target: T6, α1β1 integrin (Homo sapiens, UniProt P05556+P56199); test: adhesion of α1K562 cells to collagen I; assay type: cell-based; conditions: α1β1, Coll I
T6 construct: expressed in transfected cells; host or cells: α1K562 cells
Procedure: as §1, §2

[6] = system: dermal microvascular endothelial cells (EC); test: apoptosis by caspase-3 levels in dermal microvascular endothelial cells; assay type: cell-based
Procedure: The mechanisms of the cancer-suppressing effect observed for obtustatin were investigated as follows. Dermal microvascular endothelial cells (EC) and human melanoma cells (MV3) were cultured and exposed to TNF-α, vincristine and obtustatin. (TNF-α and vincristine are compounds which induce cell death by apoptosis in both normal and cancerous cells.) Control cells received only vehicle. The extent of apoptosis was measured by determining caspase-3 levels.

α6β1 integrin = molecular target: T7, α6β1 integrin (Homo sapiens, UniProt P05556+P23229); test: adhesion of α6K562 cells to laminin; assay type: cell-based; conditions: α6β1, LM
T7 construct: expressed in transfected cells; host or cells: α6K562 cells

α4β1 integrin = molecular target: T8, α4β1 integrin (Homo sapiens, UniProt P05556+P13612); test: adhesion of Jurkat cells to VCAM-1; assay type: cell-based; conditions: α4β1, VCAM-1
T8 construct: endogenous in cells; host or cells: Jurkat cells
Procedure: as §1, §2

T3 sequence (P08648 42-894 limits assumed): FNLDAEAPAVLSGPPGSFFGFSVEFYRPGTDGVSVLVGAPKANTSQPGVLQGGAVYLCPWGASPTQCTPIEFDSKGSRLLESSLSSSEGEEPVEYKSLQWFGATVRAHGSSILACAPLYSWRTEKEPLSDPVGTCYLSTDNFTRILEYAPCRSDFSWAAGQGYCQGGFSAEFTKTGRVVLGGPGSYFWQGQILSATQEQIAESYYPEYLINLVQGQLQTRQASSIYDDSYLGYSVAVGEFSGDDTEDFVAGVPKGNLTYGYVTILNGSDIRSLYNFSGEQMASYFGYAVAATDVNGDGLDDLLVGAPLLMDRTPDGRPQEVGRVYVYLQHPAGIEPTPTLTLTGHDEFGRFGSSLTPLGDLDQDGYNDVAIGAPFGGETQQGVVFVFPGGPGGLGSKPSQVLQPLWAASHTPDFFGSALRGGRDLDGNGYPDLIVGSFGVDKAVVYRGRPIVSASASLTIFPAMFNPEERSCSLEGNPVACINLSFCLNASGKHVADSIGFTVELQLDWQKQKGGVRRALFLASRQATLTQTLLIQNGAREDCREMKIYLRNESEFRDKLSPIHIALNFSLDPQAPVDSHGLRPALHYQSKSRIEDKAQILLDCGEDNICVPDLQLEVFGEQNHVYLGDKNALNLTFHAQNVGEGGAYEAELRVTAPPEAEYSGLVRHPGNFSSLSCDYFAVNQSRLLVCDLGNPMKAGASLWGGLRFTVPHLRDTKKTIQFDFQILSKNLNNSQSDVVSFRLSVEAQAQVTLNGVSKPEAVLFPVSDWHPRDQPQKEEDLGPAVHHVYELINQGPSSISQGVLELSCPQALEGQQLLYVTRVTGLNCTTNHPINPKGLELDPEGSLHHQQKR
T3 sequence (P08648 895-1049 partner limits assumed): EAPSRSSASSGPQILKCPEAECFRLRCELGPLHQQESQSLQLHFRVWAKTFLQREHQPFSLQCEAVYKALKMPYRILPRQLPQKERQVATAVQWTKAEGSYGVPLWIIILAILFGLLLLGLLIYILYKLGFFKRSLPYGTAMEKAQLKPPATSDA
T3 sequence (P05556 21-798): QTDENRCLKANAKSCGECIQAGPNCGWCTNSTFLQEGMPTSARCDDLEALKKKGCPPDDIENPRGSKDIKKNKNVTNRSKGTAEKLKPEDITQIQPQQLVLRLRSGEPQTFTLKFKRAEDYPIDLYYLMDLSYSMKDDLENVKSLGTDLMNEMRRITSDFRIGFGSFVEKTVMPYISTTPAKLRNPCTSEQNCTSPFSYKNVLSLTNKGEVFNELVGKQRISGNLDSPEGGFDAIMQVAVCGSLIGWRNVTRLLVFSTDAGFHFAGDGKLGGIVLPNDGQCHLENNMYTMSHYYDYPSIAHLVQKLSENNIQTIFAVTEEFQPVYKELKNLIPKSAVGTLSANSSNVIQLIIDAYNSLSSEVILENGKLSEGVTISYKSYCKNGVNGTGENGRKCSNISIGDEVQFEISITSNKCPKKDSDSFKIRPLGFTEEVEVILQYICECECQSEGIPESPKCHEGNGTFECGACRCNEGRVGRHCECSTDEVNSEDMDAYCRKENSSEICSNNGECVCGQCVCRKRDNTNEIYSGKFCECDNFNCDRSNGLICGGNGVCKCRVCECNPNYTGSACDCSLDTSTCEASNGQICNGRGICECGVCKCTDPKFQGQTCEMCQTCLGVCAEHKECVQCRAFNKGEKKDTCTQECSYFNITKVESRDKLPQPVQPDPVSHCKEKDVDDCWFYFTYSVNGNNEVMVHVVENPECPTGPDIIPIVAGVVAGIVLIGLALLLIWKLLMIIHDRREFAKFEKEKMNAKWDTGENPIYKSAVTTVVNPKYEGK
T2 sequence (P06756 31-889 limits assumed): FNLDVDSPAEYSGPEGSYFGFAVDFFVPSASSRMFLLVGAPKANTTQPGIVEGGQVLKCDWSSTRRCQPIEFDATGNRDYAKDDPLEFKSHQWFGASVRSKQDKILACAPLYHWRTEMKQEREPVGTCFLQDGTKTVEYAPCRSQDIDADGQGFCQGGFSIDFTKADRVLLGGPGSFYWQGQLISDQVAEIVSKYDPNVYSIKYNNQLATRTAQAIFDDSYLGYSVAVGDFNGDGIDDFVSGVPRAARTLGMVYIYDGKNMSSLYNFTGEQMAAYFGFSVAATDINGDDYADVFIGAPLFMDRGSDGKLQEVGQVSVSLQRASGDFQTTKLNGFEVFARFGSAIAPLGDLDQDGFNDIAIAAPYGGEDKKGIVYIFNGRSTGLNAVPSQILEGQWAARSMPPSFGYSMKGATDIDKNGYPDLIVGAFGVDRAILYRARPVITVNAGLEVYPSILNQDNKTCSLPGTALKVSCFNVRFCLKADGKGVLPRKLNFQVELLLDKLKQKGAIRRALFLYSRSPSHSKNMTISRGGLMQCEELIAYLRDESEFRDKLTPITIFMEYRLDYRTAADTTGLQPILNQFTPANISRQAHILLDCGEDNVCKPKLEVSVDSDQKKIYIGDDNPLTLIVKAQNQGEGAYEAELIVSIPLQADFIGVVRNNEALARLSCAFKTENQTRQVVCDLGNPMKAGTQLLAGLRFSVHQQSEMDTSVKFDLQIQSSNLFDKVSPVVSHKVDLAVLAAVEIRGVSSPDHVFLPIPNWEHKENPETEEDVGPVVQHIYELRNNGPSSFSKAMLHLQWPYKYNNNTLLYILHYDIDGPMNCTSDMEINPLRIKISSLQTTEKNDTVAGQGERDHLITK
T2 sequence (P06756 891-1048 partner limits assumed): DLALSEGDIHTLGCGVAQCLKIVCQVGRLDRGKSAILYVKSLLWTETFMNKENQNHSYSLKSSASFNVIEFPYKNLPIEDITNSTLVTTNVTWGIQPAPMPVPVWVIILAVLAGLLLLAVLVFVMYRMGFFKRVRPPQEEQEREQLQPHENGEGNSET
T2 sequence (P05106 27-788): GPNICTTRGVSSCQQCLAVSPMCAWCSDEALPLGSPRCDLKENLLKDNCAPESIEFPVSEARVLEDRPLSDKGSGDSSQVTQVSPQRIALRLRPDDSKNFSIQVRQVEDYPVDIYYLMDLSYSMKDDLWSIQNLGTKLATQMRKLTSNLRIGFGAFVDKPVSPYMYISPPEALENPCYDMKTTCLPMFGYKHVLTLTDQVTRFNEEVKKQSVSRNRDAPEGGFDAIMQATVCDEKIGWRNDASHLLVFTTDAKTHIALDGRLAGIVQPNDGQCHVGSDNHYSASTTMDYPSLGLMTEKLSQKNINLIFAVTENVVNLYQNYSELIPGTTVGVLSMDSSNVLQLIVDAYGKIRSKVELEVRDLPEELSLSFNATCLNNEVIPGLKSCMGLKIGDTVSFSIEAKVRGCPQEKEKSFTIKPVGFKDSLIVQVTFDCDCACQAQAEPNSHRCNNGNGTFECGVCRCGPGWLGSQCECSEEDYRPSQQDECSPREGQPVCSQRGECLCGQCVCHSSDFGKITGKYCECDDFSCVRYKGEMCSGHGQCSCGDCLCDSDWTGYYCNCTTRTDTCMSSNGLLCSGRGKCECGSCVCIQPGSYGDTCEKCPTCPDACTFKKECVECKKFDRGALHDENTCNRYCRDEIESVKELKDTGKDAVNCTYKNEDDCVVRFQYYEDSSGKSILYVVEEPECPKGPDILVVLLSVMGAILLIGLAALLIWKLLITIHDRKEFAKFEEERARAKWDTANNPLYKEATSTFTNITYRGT
T6 sequence (P56199 29-1179): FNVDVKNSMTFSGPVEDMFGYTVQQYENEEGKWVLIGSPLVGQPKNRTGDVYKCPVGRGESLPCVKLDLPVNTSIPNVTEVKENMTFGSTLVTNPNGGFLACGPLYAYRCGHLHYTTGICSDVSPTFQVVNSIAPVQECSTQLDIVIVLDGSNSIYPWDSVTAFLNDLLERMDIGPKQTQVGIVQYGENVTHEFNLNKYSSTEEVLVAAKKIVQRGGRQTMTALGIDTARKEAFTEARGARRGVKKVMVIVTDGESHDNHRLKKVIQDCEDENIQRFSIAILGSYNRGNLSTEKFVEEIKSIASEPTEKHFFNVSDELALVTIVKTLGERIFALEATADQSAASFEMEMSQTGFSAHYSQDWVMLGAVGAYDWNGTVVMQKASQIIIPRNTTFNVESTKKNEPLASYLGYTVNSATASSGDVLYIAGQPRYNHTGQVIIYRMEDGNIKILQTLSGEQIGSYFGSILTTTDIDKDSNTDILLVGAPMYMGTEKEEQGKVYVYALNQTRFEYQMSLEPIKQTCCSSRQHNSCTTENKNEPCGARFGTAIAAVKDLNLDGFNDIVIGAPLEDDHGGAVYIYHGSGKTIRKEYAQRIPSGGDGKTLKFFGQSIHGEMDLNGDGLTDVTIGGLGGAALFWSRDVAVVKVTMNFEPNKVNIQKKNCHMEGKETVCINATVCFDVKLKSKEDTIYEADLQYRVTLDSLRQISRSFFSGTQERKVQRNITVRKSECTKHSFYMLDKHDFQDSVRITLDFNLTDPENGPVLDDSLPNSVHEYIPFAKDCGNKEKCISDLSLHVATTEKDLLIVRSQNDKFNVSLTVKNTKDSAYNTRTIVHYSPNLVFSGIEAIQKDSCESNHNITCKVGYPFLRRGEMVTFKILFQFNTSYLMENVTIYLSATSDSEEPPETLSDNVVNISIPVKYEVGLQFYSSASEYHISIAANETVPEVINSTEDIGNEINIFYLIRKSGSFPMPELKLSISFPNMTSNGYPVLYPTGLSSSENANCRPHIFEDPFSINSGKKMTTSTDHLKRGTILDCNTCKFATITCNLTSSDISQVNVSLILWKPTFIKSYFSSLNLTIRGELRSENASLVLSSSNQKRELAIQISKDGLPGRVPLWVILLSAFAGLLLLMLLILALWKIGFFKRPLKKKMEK
T6 sequence (P05556 21-798): as the sequence (P05556 21-798) above

Substance: Obtustatin (CTTGPCCRQCKLKPAGTTCWKTSLTSHYCTGKSCDCPLYPG)
- IC50 (α2β1 integrin [1]): > 10 µM
- IC50 (αvβ3 integrin): > 10 µM
- IC50 (α5β1 integrin): > 10 µM
- IC50 (α1β1 integrin [2]): 0.0002 µM
- inhibitory activity on angiogenesis (fractal dimension) (angiogenesis): up to 30 % of control
- IC50 (αIIbβ3 integrin): > 10 µM
- growth (BrdU incorporation) [3]: inhibited growth
- inhibition of adhesion of MV3 cells to collagen IV (α2β1 integrin [4]): comparatively insensitive
- IC50 (α1β1 integrin [5]): 0.0005 µM
- apoptosis (caspase-3) [6]: induced significant apoptosis
- IC50 (α6β1 integrin): > 10 µM
- IC50 (α4β1 integrin): > 10 µM
